Test results taken from patent publication US20190375846A1 (ULTRAHUMAN ONE, published 2019).

T1: human GITR at the cell surface (human, UniProt Q9Y5U5 26-241)
T1 construct: whole, on cells; The cell type is named in the assay field of each row; also called human GITR+ cells; CHO-K1 human GITR+ cells
T1 sequence (looked up): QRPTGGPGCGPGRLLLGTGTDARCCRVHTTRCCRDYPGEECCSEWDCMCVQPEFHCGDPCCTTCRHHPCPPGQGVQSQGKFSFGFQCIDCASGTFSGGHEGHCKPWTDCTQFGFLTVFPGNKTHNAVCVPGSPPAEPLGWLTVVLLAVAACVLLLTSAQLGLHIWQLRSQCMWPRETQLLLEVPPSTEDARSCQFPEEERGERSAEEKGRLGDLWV

T2: human GITR-Fc (human, UniProt Q9Y5U5 26-161)
T2 construct: Recombinant GITR-Fc; also called hGITR-Fc; hGITR; not shown: Fc part
T2 sequence (looked up): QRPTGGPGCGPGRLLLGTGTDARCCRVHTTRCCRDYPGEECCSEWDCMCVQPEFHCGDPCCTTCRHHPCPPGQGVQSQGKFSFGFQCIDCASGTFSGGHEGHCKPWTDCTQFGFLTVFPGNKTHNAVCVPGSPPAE


Assays:
[1] = target: T1, human GITR at the cell surface; test: flow cytometry on CHO-K1 human GITR+ cells; competitor: soluble human GITRL
human GITR-Fc [2] = target: T2, human GITR-Fc; test: HTRF competition: unlabelled IgG1 titrated 0.003-100 µg/ml against terbium-labelled VH1/VL1 IgG on biotinylated human GITR-Fc with SA-XL665, 665/615 ratio
Experimental: A competition HTRF assay was established to examine epitope competition against VH1/VL1 IgG by grafted and library-derived clones. The purified VH1/VL1 IgG was labelled with terbium using a labelling kit (CisBio) per the manufacturers instructions. The final reaction mix contained biotinylated human GITR-Fc, SA-XL665 (CisBio), terbium-labelled parental […], and competitor IgG of interest, prepared as described above, in a total reaction volume of 20 μl in 1× assay buffer [50 mM sodium phosphate, pH 7.5, 400 mM potassium fluoride, and 0.1% BSA (w/v)]. Reagents were added sequentially on a MiniTrak Liquid Handling Platform (Perkin-Elmer) into 384-well low-volume black plates (Nunc). Reactions proceeded for 1 h at room temperature, and plates were subsequently read on a plate reader with excitation at 340 nm and two emission readings at 615 nm (measuring input donor fluorescence from VH1-VL1-cryptate) and 665 nm (measuring output acceptor fluorescence from SAXL665). Readings were expressed as 665 nm/615 nm ratios.
To examine the competition of the library-derived clones with the unaltered, closest-germline grafted CDRs of VH1/VL1 IgG, an Homogeneous Time Resolved Fluorescence (HTRF) assay was established. This assay incorporated terbium-labelled VH1/VL1 IgG, Biotinylated hGITR-Fc and streptavidin-XL665, in solution-phase binding. […]

human GITR-Fc [3] = target: T2, human GITR-Fc; test: direct titration ELISA, coated human GITR-Fc, IgG1
Experimental: (§1) To coat Greiner Bio-One High bind ELISA plates, target proteins were diluted to 1 μg/ml in carbonate buffer and added at 100 μl per well, at 4° C., o/n. Coated plates were washed 3× with PBS pH7.4, blocked with 1% BSA in PBS (380 μl/well) for 1 hr at RT, then washed 3× with PBS-Tween 20 (PBST). GITR antibodies (100 μl/well; diluted in PBST) were then added and then incubated 1 hr at RT. Plates were then washed 3× with PBST and goat anti-human kappa chain-HRP added (100 μl/well) at RT, for 1 hr. Plates were then washed 3× with PBST and twice with PBS before the addition of 100 μl TMB per well. Reactions were stopped by adding 100 μl 2M H₂SO₄/well and OD was read on a plate reader at 450 nm. IgG binding analysis via ELISA on negatively charged biomolecular surfaces were performed as previously described (see Mouquet et al., 2010, Nature 467: 591-595).
Retention of GITR-binding function in the purified IgG1 proteins was first examined by titration in direct binding ELISA against human GITR-Fc. […] Importantly, the >100-fold loss of binding function in the VH2 IgG family further illustrated that the HCDR1 could not be fully germ-lined a priori to match the native sequence of the human germline HCDR1 found in the framework used for grafting (IGHV3-7).

[4] = target: T3, cynomolgus monkey GITR-Fc (cynomolgus monkey (Macaca fascicularis)); test: direct titration ELISA on coated cyno GITR-Fc, IgG1 0.001-1 µg/ml, OD 450 nm
T3 construct: also called cyno GITR-Fc; cGITR-Fc
Experimental: as §1
The 17 purified IgGs described above were then tested for binding to human and cyno GITR-Fc in direct titration ELISA format.

Row | Binder | fold reduction of binding signal in the presence of 10 µg/ml soluble GITRL [1] [fold] | IC50 (read off the curve) (human GITR-Fc [2]) [µg/mL] | EC50 (human GITR-Fc [3]) [µg/mL] | EC50 (read off the curve) [4] [µg/mL]
1 | D-A6 IgG1 (antibody, V domains shown, Human IgG1) VH: EVQLVESGGGLVQPGGSLRLSCAASGFSLSTSGYGVGWVRQAPGKGLEWLAHIWWDDDKYYVDSVKGRFTISRDNAKNSLYLQMNSLRAEDTAVYYCARTRQYFPFAYWGQGTLVTVSS VL: EIVLTQSPATLSLSPGERATLSCRASQSVGSNLAWYQQKPGQAPRLLIYSASYRYTGIPARFSGSGSGTDFTLTISSLEPEDFAVYYCQQYSTDPLTFGGGTKVEIK | > 10 | ~1 | – | –
2 | chimeric anti-GITR IgG1 mVH/mVL (6C8 murine v-domains) (antibody, V domains shown, Full-length human IgG1, kappa; also called GITR-mVH/mVL; chimeric IgG) VH: QVTLKESGPGILKPSQTLSLTCSFSGFSLSTSGMGVGWIRQPSGKGLEWLAHIWWDDDKYYNPSLKSQLTISKDTSRNQVFLKITSVDTADAATYYCARTRRYFPFAYWGQGTLVTVSS VL: DIVMTQSQKFMSTSVGDRVSVTCKASQNVGTNVAWYQQKPGQSPKALIYSASYRYSGVPDRFTGSGSGTDFTLTINNVHSEDLAEYFCQQYNTDPLTFGAGTKLEIK | – | – | ≥ 0.004 | ~0.05
